For the assay, the target named is T1, Protein-X (novel PSD) expressed from injected RNA in Xenopus oocytes (human) (UniProt Q5T2T1).
T1 sequence: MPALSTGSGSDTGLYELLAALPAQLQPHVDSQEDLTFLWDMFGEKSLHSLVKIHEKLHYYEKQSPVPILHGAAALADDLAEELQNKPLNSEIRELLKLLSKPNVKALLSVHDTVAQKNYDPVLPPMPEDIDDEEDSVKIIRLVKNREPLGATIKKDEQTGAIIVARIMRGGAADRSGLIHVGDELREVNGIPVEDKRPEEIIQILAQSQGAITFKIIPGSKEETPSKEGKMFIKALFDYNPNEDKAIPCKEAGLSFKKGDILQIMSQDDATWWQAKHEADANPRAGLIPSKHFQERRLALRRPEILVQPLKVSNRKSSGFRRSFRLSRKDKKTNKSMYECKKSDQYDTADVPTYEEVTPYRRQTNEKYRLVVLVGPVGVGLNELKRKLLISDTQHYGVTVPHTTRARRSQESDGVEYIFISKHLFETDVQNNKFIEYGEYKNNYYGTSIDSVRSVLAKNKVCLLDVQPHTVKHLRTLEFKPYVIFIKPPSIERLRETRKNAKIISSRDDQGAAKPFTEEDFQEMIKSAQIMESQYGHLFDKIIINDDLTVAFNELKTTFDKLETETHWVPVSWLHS
Nature of the assay: cell-based or functional assay.

Where “and” joins values, the source holds several entries; their conditions need not be identical. Equal entries are not always repeated.

B1: PJ01087 protein (Protein-Y) expressed from injected RNA in Xenopus oocytes (protein)
chain: MRGYHGDRGSHPRPARFADQQHMDVGPAARAPYLLGSREAFSTEPRFCAPRAGLGHISPEGPLSLSEGPSVGPEGGPAGAGVGGGSSTFPRMYPGQGPFDTCEDCVGHPQGKGAPRLPPTLLDQFEKQLPVQQDGFHTLPYQRGPAGAGPGPAPGTGTAPEPRSESPSRIRHLVHSVQKLFAKSHSLEAPGKRDYNGPKAEGRGGSGGDSYPGPGSGGPHTSHHHHHHHHHHHHQSRHGKRSKSKDRKGDGRHQAKSTGWWSSDDNLDSDSGFLAGGRPPGEPGGPFCLEGPDGSYRDLSFKGRSGGSEGRCLACTGMSMSLDGQSVKRSAWHTMMVSQGRDGYPGAGPGKGLLGPETKAKARTYHYLQVPQDDWGGYPTGGKDGEIPCRRMRSGSYIKAMGDEESGDSDGSPKTSPKAVARRFTTRRSSSVDQARINCCVPPRIHPRSSIPGYSRSLTTGQLSDELNQQLEAVCGSVFGELESQAVDALDLPGCFRMRSHSYLRAIQAGCSQDDDCLPLLATPAAVSGRPGSSFNFRKAPPPIPPGSQAPPRISITAQSSTDSAHESFTAAEGPARRCSSADGLDGPAMGARTLELAPVPPRASPKPPTLIIKTIPGREELRSLARQRKWRPSIGVQVETISDSDTENRSRREFHSIGVQVEEDKRRARFKRSNSVTAGVQADLELEGLAGLATVATEDKALQFGRSFQRHASEPQPGPRAPTYSVFRTVHTQGQWAYREGYPLPYEPPATDGSPGPAPAPTPGPGAGRRDSWIERGSRSLPDSGRASPCPRDGEWFIKMLRAEVEKLEHWCQQMEREAEDYELPEEILEKIRSAVGSTQLLLSQKVQQFFRLCQQSMDPTAFPVPTFQDLAGFWDLLQLSIEDVTLKFLELQQLKANSWKLLEPKEEKKVPPPIPKKPLRGRGVPVKERSLDSVDRQRQEARKRLLAAKRAASFRHSSATESADSIEIYIPEAQTRL
For B1, the current response to the ligand stimulation of the NMDA receptor in oocytes, against Protein-X alone was 7 times and 8 times.

For the origin of these results see US20060252677A1.
